Test system: La protein
Assay: qRT-PCR of La protein mRNA from transfected HEK293T tTA-d2EGFP cells
Assay type: cell-based
Method: (A) qRT-PCR of La protein mRNA from HEK293T tTA-d2EGFP cells transfected in the presence (▪) or absence (□) of 1.5 mM theophylline. […] Error bars represent quadruplicate qRT-PCR measurements. (B) Curve fit to extrapolate empirical parameters C1-3. Dashed line marks knockdown achieved by base shRNA. (C) Model predictions for dynamic range using empirical parameter values for the GFP experiments along with fshRNA=0.6 and e=0.72 (gray curve) and extrapolated values from the La experiments (black curve). (D) Relationship between dynamic range (η) and the free energy difference. The dashed line represents the apparent increase in La mRNA levels upon theophylline addition observed for the base shRNA (shL).
To examine the generality of shRNA switch design and functionality, Applicants designed a set of shRNA switches targeting the endogenous La protein. Following selection of an shRNA sequence that yields moderate knockdown of La as ascertained by qRT-PCR, various switching strand sequences covering a range of ΔG values were combined with the smaller theophylline aptamer to yield six shRNA switches (L1-6). […] As observed for the GFP-targeting shRNA switches, use of the stems method provided a suitable correlation between basal levels and ΔGmethod. Supplying the model with fit values for C1-3 yielded a predicted dynamic range trend that closely matched the experimental data. […]

B1: shL: base shRNA targeting endogenous La protein; sequence in Table I (pCS1457) (nucleic acid)
chain: GGATCCGGCTTCCCAACGATGATGCAACTCCTCGAGTCTAGAGGAGTTGCATCAGTTGGGAAGCCTTTTTTGGAAGCTT
modifications: the letters are possibly those of the target site
- response of La mRNA levels to theophylline (1.5 mM theophylline): not observed
- fshRNA (La experiments) (relative knockdown of La by base shRNA): 0.6

From patent publication US8367815B2, “Modular polynucleotides for ligand-controlled regulatory systems” (California Institute of Technology, priority 2007, dated 2013)
